This data set can be described thus: soluble on expression in E. coli; label from the status in PepcDB or PDB records.
Take “MATAHYHGSCQCGSVSFEVDADLDHTVICNCSRCKRLGSTLAFAPREKFTLLSGEDKLSEYLFNKHKIHHFFCSTCGIESFAYADGPDGTPMVAVNANCLDGVDPRALKSQAFDGAA”: the “soluble on expression in E. coli” value is given as “not soluble”.
Under “MATAHYHGSCQCGSVSFEVDADLDHTVICNCSRCKRLGSTLAFAPREKFTLLSGEDKLSEYLFNKHKIHHFFCSTCGIESFAYADGPDGTPMVAVNANCLDGVDPRALKSQAFDGAAA” stands “soluble”.
Under “MATFEEVSVLGFEEFDKAVKEHESKTIFAYFSGSKDTEGKSWCPDCVEAEPVIREGLKHVTEDCVFIYCQVGDKPYWKDPNNDFRQKLKITAVPTLLKYGTPQKLVESECCQSSLVEMIFSED” stands “soluble”.
Under “MATGAMSRSNDWTKSLSDAQPVPYWLDDPGRPRPEAALTGTETCDLLVVGGGYSGLWTALIAKERDPGRDVVLIEGREVGWAASGRNGGFCAASLTHGLSNGLTRWPDDIHRLEELGARNLDAIEAAVARHGLDCDFERTGEIDVATEPHQARELEEWYAEIRAQGLAEGVEYLDAEAVREQVDSPTFRAGLWDRRGVAMVNPAKLAWGLKRACLALGVRVHEHTPALTLKPYGAGMAVRTPYGAVRARTVALGTNVFPNLVRRVRPYTVPVYDYALMTEPLSDGQLASVGWQNRQGLGDSANQFHYFRLSRDNRILWGGYDAVYPYGGRVRAEYDHRPETYAKLAGHFFTCFPQLEGVRFTHAWGGAIDTCSRFSAFFGTAHRGRVAYAAGYTGLGVGATRFGAEVMLDLLSGERTERTELEMVRTKPLPFPPEPFAWTGIALTKWSLARADAHGGRRNLWLRTMDRLGLGFDSLEHHHHHH” stands “not soluble”; under “MATIRTKFRSSSAEGREGALYYQVIHNRVVRQISTGYKLFASEWDQRSEAVIPCQHPAGMERDNYLLSVGERIRRDKIRLEKAIRTLSQSGPFTADDIVIRFHDSGQEPSFNDYIRQQIVRLKRLGKIRTSETYTAALKSFSSFMKGSDILFGELSSDLLMEYEAYLKNRGNSPNTISFYMRILKAVYNRAVENGLTGQRNLFKSVYTGVEKTLKRAIHLNDIRRIKRLDLSLKPHLDFARDMFLFCFYTRGMSFVDMAYLKKGDIANGILTYRRKKTGQQLFIRWEKCMQEIIKLFCLSVQDFKVVH”, “not soluble”.
On to “MATLLRSLALFKRNKDKPPITSGSGGAIRGIKHIIIVPIPGDSSITTRSRLLDRLVRLIGNPDVSGPKLTGALIGILSLFVESPGQLIQRITDDPDVSIRLLEVVQSDQSQSGLTFASRGTNMEDEADQYFSHDDPISSDQSRFGWFENKEISDIEVQDPEGFNMILGTILAQIWVLLAKAVTAPDTAADSELRRWIKYTQQRRVVGEFRLERKWLDVVRNRIAEDLSLRRFMVALILDIKRTPGNKPRIAEMICDIDTYIVEAGLASFILTIKFGIETMYPALGLHEFAGELSTLESLMNLYQQMGETAPYMVILENSIQNKFSAGSYPLLWSYAMGVGVELENSMGGLNFGRSYFDPAYFRLGQEMVRRSAGKVSSTLASELGITAEDARLVSEIAMHTTEDKISRAVGPRQAQVSFLHGDQSENELPRLGGKEDRRVKQSRGEARESYRETGPSRASDARAAHLPTGTPLDIDTASESSQDPQDSRRSADALLRLQAMAGISEEQGSDTDTPIVYNDRNLLD”, for which the “soluble on expression in E. coli” value is given as “not soluble”.
For “MATLVVNKLGAGVDSGRQGSRGTAVVKVLECGVCEDVFSLQGDKVPRLLLCGHTVCHDCLTRLPLHGRAIRCPFDRQVTDLGDSGVWGLKKNFALLELLERLQNGPIGQYGAAEESIGISGESIIRCDEDEAHLASVYCTVCATHLCSECSQVTHSTKTLAKHRRVPLADKPHEKTMCSQHQVHAIEFVCLEEGCQTSPLMCCVCKEYGKHQGHKHSVLEPEANQIRASILDMAHCIRTFTEEISDYSRKLVGIVQHIEGGEQIVEDGIGMAHTEHVPGTAENARSCIRAYFYDLHETLCRQEEMALSVVDAHVREKLIWLRQQQEDMTILLSEVSAACLHCEKTLQQDDCRVVLAKQEITRLLETLQKQQQQFTEVADHIQLDASIPVTFTKDNRVHIGPKMEIRVVTLGLDGAGKTTILFKLKQDEFMQPIPTIGFNVETVEYKNLKFTIWDVGGKHKLRPLWKHYYLNTQAVVFVVDSSHRDRISEAHSELAKLLTEKELRDALLLIFANKQDVAGALSVEEITELLSLHKLCCGRSWYIQGCDARSGMGLYEGLDWLSRQLVAAGVLDVA”, the “soluble on expression in E. coli” value is “soluble”.
Under “MATMDEKPLYGLERTVFRQLLHLFSRYADVIEKVILFGSRARGDYKEGSDIDLAIKFRKPGGPLYLLQSDLDELPIIYPIDVVDYNQIHNEQLKMNIDQEGKTIFQTNEHGKVMVTMSRLMDRFYDFERALSKLRQSAARDAQTDDLVVDATIQRFEFTYELAWKWMKLYLEHQGYAEVTSPRKTIREAFREGLIQDGETWLRMLEDRNRTSHTYDEETAMDIYERIRIHYIPLFDRLLDEMKQRLDSAT” stands “not soluble”; under “MATMLSRYFLLTVAALFAQSASAIEVLTSIKPIQMITYELMLGTGTPDVLLPSGASPHDYALRPSDVKRIQQADLVIWFGQDLEPFMSKLLEGRTSALTLSQVPNLALREYGEEEQHEHDGHHHGHYDPHFWLGIGPVGQVASAITAKLIELDADQQQQYQDNLVRFLANLAEQDNTIGEKLKPVTTVPYYVFHDAYGYFEQHFALNNLGHFTVSPERKPGAKTLIAIKKTLNDQLAKCVFSEPQFEPAIIETVVRGTSAKIGVLDPLGISIELQAGSYFAFLNSLAESYYACLSQS”, “not soluble”.
Under “MATPETRRRPNILVTGSPGTGKSTLGQQVAEKLGFVFIEVSKEVRENNLQGDFDEQYNCHVLDEDKLLDHISDRLDSDEGGIVVDYHGCDLFPERWFDVVVVLRCPTEKLYDRLQSRGYSEFKIKENVECEIFGTLLEEARESYSEDIVHELQSETTEQMEENLERICELAGEFKNEHTMEQ” stands “not soluble”; under “MATQARLPLPVGSTTSVSVVIPAKNVAAYVGETLASALAQGEVTEVIVVDDGSTDNTIAIVRAIRDPRLRLMTNDSAGVSAARNLGARHASGEWLLFLDADDRLRPGAVAALLAAARGAPRAVLVYGDYNTIDSEGRQVGRRDLLKGRRKPSGDVLTRLAASNFIVNGGIALARAEAFRAIGGFDTSLRYCEDWHCWCRLAAIGEFEFAPKLLLDYRLHTANTMNAAVRTPQDFFPAIARVFDDGLILARLPEGTAARLRQAAEIHLVTYSAMQAVRFGRYRQAFTYLGMVGRRSLKSLPRSALRVALACFGILEHHHHHH”, “not soluble”; under “MATQDDAHLAELKKKRTFRKFMYRGVDLDQLLDMSREQFTKLLPCRMRRRLDRGLKRKHLALIAKVQKAKKAAGVLEKPATVKTHLRDMIILPELVGGVIGIYNGKVFNQTEIKPEMIGFYLGEFAISYKPVKHGRPGIGATHSSRFIPLK”, “not soluble”.
On to “MATQQAKILCCGDVNGNFVELIKKISTTEKKNGPFDSLFCVGEFFGDDDDSNEKVINGNIEFPIPTYILGPANPRYSYLYPEESIEFSSNLTYLGKKGLLNTASGLQIAYLSGVEGSSKDLSCFDKADVEELLIPLGTQVGFSGTDILLTSVWPADIARHSHNQPSKPQPGSVLLSKLAAHLKPRYHFAGLGVHYERQPYRNHRVLLEPARHTTRFIGLAAIGNPEKQKWLYACNVKPMRKMEKEELTAQPPNASEFPYRELLEEIAAKETLSRMNGNGQRPEGSQYRFEMGGAEDGAGNGRKRHNDGGNDGPRNKQPVGPCWFCLSNVDAEKHLVVAIGNKCYAAMPKGPLTEDHVMVLSVGHIQSQVSAPVEVRDEIEKFKSAFTLMANKQGKALVTFERNFRTQHLQVQMVMIDKSSSKALKSSFTTAAACAGFELVTMGPDESLLDMVNEGCPYFVAELPDGSKLFTRSMKGFPLHFGREVLASTPILDCEDKVDWKACVLAKEKEVELVNKLKSDFKPFDFTAEDDSD”, for which the “soluble on expression in E. coli” value is “not soluble”.
Under “MATRNEEILRKPDWLKIKLNTNDNYTGLKKMMREKNLHTVCEEAKCPNIHECWGARRTATFMILGAVCTRACRFCAVKTGLPNELDLNEPERVAESVELMNLKHVVITAVARDDLRDQGSNVYAETVRKVRERNPFTTIEILPSDMGGDYEALETLMASRPDILNHNIETVRRLTPRVRARATYDRTLQFLRRSKELQPDIPTKSSLMVGLGETMEEIYETMDDLRANDVDILTIGQYLQPSRKHLKVEKYYTPLEFGKMRKIAMEKGFKHCQAGPLVRSSYHADEQVNEAAKEKQRQGEEQLN” stands “not soluble”; under “MATTTMTMIQALRSAMDVMLERDDNVVVYGQDVGYFGGVFRCTEGLQTKYGKSRVFDAPISESGIVGTAVGMGAYGLRPVVEIQFADYFYPASDQIVSEMARLRYRSAGEFIAPLTLRMPCGGGIYGGQTHSQSPEAMFTQVCGLRTVMPSNPYDAKGLLIASIECDDPVIFLEPKRLYNGPFDGHHDRPVTPWSKHPHSAVPDGYYTVPLDKAAITRPGNDVSVLTYGTTVYVAQVAAEESGVDAEVIDLRSLWPLDLDTIVESVKKTGRCVVVHEATRTCGFGAELVSLVQEHCFHHLEAPIERVTGWDTPYPHAQEWAYFPGPSRVGAALKKVMEV”, “soluble”.
Regarding “MATWEEYLGAQQANDGVQFTWNMWPHSRVDSQKLVVPLTCFFTPLKERPSTEVAQPPLEYDPVLCQKASCKAILNPLCAVDYRAKIWMCPFCNNRNPFPAHYAAIAEDNRPPELYPQFTTIEYTLRKATTMPPIFVFVVDTCMTAEELKSLKECLQTALSLLPADALVGLITYGRMVQLHELNTQGISRSYVFKGTKEVTAKQIKDVMAGGGLSQRPAAGAPGAPAGAPGAPMAMGSGAAPLGQLPGSGLPGGLPRGGGPPLPGAAQGIVAPGGGAPVPHAPANKFLQPISECDESINDLIDQISIDRWPVPQGHRPLRATGAALAVAVTLLESCFPSTGARIMSFIGGACTHGPGAVVGEELKNPIRSWNSIKEDAAPYMKKAIKFYDGLAARIVKNGHAVDVYSCALDQTGLLEMKNMFNSSGGHVVMGDSFNSSLFKQTYQRSFDKDSAGNLKMGFNATMEVKVGAGLKIEGVLGCCASGNVRNANVSDQEMGIGGTCQWKFGAISPRTTIGVVFEIAAQHGSAIPQGGRGMVQFVTQYQHADGRKRIRVTTTCRTWADMATQQPNIAYGFDQEAAAVAIARLASFRASNENDTPEALRWLDRSLIRLCQKFGEYSKDDPNSFRLSDKFSLFPQFMFHLRRSQFLQVFNNSPDETAYYRHILFSENVLESTTMIQPVLFSYSFNGPPEPVLLDTSSILADRILLMDDYFHVLIYHGQTIAQWRKQNFHENPQYATFKQLLEAPVADATSILQERFPMPRYIVTEHEGSQARFLLSKVNPSLTHNNPYANEAGSAVFTDDVSLQVFMEHLKKLSSSSST”, the “soluble on expression in E. coli” value is “not soluble”.
Under “MAVCSLVAKITYAEERQQNNYPIILVNGFAGWGREEMLGVKYWGGVHDIQEDLKRNGYTVHTAAVGPVSSNWDRACELYAQINGGTVDYGAAHAEKHGHKRFGRTYSGFAPNWSETNKIHLVGHSMGGQTIRTLVQLLKEGSYEEKNYVKNHPNTKISPLFEGEKSYVHSVTTLATPHNGTTLADGSLLLPFVKDLLITAASFGGNDNLSLYDFKLDQWGLKKNTGESFFQYSNRILNSSIWKNTKDISQWDLSTDGAKELNNWVKTQLNVYYLSYSGHASQAAPITGLHLPHITMNKVLMGNAFFLGSYARYEENRPLIDTTWWQNDGVVNTSSMIAPSSNATVNNNESLQIGKWNHIETKANWDHLDMVGLSVSDTLGFSSIQEFYRAIAEKLSRLPK” stands “not soluble”.

Source of the values: the DeepSol protein solubility set.
